Test results taken from article PMC5998080, “Structural and functional analysis of mRNA export regulation by the nuclear pore complex” (Nature Communications, 2018).

T1: S. cerevisiae Gle1^CTD•Nup42^GBM•Dbp5 (Saccharomyces cerevisiae, UniProt P20449+Q12315)
T1 construct: with Nucleoporin NUP42
T1 sequence (Q12315 243-538): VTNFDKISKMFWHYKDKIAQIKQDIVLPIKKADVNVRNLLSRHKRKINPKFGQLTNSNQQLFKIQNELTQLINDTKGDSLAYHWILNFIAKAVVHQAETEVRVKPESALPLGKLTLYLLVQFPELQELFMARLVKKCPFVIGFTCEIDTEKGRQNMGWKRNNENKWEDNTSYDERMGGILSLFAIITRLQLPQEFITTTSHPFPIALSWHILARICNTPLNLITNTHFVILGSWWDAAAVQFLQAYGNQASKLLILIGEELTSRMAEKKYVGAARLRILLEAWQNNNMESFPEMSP
T1 sequence (P20449 1-482): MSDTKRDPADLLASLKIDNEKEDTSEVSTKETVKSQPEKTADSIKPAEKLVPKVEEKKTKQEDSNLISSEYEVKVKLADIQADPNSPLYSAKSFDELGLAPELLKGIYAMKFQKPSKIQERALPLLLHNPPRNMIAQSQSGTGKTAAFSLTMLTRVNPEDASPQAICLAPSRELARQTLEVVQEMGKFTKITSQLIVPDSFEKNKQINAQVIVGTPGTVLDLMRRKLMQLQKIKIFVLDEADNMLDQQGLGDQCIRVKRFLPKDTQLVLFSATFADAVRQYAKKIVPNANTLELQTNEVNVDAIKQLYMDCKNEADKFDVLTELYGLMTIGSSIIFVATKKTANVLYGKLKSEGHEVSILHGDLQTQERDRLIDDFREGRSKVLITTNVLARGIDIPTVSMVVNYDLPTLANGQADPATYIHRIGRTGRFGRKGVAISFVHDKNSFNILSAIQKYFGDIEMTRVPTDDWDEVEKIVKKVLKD
T1 sequence (P49686 397-430 partner): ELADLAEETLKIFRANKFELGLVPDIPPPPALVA

T2: S. cerevisiae Gle1^CTD (Saccharomyces cerevisiae, UniProt Q12315)
T2 construct: C-terminal domain alone (borders in supplement); His6-scGle1CTD from E. coli, tag cleaved
T2 sequence (Q12315 243-538): T1 sequence (Q12315 243-538)

T3: S. cerevisiae Gle1^CTD•Nup42^GBM (Saccharomyces cerevisiae, UniProt Q12315)
T3 construct: E. coli; His6 tag cleaved with PreScission; with Nucleoporin NUP42
T3 sequence (Q12315 243-538): T1 sequence (Q12315 243-538)
T3 sequence (P49686 397-430 partner): T1 sequence (P49686 397-430 partner)

T4: DDX19 (wild type) (Homo sapiens, UniProt Q9UMR2 1-479)
T4 sequence: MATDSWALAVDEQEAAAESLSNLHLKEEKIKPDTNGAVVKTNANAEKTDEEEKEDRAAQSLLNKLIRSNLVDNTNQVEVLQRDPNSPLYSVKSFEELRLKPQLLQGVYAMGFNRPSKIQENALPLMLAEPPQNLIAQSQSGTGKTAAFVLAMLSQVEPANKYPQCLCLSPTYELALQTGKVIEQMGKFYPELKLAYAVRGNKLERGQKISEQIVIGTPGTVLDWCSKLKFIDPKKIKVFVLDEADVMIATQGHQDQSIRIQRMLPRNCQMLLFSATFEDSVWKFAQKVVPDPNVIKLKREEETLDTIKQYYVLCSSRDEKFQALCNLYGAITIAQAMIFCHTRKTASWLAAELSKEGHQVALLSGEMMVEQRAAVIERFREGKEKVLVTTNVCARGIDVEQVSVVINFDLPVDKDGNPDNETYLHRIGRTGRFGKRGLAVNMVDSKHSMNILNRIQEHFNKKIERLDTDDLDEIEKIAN

T5: Nup155 C-terminal domain (Nup155^CTD, residues 870–1391) (human, UniProt O75694 870-1391)
T5 construct: human Nup155, C-terminal domain, residues 870-1391; also called His6-Nup155^CTD; source: E. coli BL21-CodonPlus(DE3)-RIL, purified (Ni-NTA, HiTrap Q, Superdex 200); not shown: His6, N-terminal, cleaved
T5 sequence (looked up): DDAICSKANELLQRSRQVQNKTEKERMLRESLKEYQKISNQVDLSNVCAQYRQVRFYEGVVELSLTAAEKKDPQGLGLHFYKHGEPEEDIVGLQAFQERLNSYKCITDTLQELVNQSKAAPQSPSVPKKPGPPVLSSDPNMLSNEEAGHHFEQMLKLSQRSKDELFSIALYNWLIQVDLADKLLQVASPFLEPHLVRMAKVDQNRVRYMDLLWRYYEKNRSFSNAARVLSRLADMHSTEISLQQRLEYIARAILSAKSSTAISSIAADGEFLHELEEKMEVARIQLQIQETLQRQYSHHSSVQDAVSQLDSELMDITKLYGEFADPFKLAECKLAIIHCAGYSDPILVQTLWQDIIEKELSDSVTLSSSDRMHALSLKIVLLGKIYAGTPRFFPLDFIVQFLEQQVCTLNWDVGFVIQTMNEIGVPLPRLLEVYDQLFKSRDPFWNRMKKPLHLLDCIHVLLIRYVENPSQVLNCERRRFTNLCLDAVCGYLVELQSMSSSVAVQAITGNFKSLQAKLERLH

T6: GST-Nup155^CTD (human, UniProt O75694 870-1391)
T6 construct: human Nup155, C-terminal domain, residues 870-1391; Limits are those printed for Nup155^CTD; source: E. coli BL21-CodonPlus(DE3)-RIL, purified (Glutathione Sepharose, HiTrap Q, Superdex 200); not shown: GST, N-terminal, kept
T6 sequence (looked up): T5 sequence (looked up)

T7: H. sapiens DDX19 (human, UniProt Q9UMR2 1-479)
T7 construct: human DEAD-box helicase DDX19 (the printed residue numbers run to 479); also called hsDDX19; wild-type DDX19; source: E. coli BL21-CodonPlus(DE3)-RIL, purified (Ni-NTA, HiTrap Q, Superdex 200); not shown: His6, N-terminal, cleaved
T7 sequence (looked up): T4 sequence

T8: H. sapiens DDX19^∆N53 (residues 54–479) (human, UniProt Q9UMR2 54-479)
T8 construct: human DEAD-box helicase DDX19 without the flexible N-terminal extension, residues 54-479; source: E. coli BL21-CodonPlus(DE3)-RIL, purified (Ni-NTA, HiTrap Q, Superdex 200); not shown: His6, N-terminal, cleaved
T8 sequence (looked up): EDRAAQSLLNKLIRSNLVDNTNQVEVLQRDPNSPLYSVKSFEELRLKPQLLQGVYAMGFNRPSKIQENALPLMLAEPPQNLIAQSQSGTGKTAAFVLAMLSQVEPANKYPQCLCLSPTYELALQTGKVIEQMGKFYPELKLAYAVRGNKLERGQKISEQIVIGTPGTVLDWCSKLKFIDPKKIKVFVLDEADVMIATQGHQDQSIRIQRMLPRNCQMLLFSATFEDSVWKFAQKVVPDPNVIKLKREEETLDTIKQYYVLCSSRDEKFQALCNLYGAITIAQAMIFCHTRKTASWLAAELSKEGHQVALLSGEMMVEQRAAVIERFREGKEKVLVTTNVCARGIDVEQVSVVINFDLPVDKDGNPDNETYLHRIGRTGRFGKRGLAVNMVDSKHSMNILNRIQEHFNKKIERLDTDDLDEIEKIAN

B1: 53-nt ssRNA probe (ssRNA)
RNA: GUUUUUUUUUUUUUUUUUUUUCUCGAUCCGUAGUGAUCUACUGAGCAUCUCCC
B2: Nup98 lacking the FG repeat region (Nup98^∆FG, residues 498–880) (domain or fragment, human, UniProt P52948 498-880, looked up)
chain: QAVLQQHINSLTYSPFGDSPLFRNPMSDPKKKEERLKPTNPAAQKALTTPTHYKLTPRPATRVRPKALQTTGTAKSHLFDGLDDDEPSLANGAFMPKKSIKKLVLKNLNNSNLFSPVNRDSENLASPSEYPENGERFSFLSKPVDENHQQDGDEDSLVSHFYTNPIAKPIPQTPESAGNKHSNSNSVDDTIVALNMRAALRNGLEGSSEETSFHDESLQDDREEIENNSYHMHPAGIILTKVGYYTIPSMDDLAKITNEKGECIVSDFTIGRKGYGSIYFEGDVNLTNLNLDDIVHIRRKEVVVYLDDNQKPPVGEGLNRKAEVTLDGVWPTDKTSRCLIKSPDRLADINYEGRLEAVSRKQGAQFKEYRPETGSWVFKVSHF
notes: human Nup98, construct lacking the FG repeat region, residues 498-880; also called Nup98^ΔFG; His6-SUMO-Nup98^∆FG; source: E. coli BL21-CodonPlus(DE3)-RIL, purified (Ni-NTA, HiTrap Q, Superdex 200); not shown: His6, N-terminal, cleaved; SUMO, N-terminal, cleaved
B3: H. sapiens Gle1^CTD•Nup42^GBM complex (complex, human)
chain 1: VQDITMQWYQQLQDASMQCVLTFEGLTNSKDSQAKKIKMDLQKAATIPVSQISTIAGSKLKEIFDKIHSLLSGKPVQSGGRSVSVTLNPQGLDFVQYKLAEKFVKQGEEEVASHHEAAFPIAVVASGIWELHPRVGDLILAHLHKKCPYSVPFYPTFKEGMALEDYQRMLGYQVKDSKVEQQDNFLKRMSGMIRLYAAIIQLRWPYGNRQEIHPHGLNHGWRWLAQILNMEPLSDVTATLLFDFLEVCGNALMKQYQVQFWKMLILIKEDYFPRIEAITSSGQMGSFIRLKQFLEKCLQHKDIPVPKGFLTSSFWRS
chain 2: IIATDNVLFTPRDKLTVEELEQFQSKKFTLGKIPLKPPPLELLNV
notes: human Gle1 (splice variant Gle1B), C-terminal domain, residues 382-698; Chains as m16 and m17; also called hsGle1^CTD•His6-hsNup42^GBM; source: E. coli BL21-CodonPlus(DE3)-RIL, co-expressed, purified (Ni-NTA, heparin, Superdex 75); not shown: His6, N-terminal, cleaved
B4: H. sapiens Gle1 C-terminal domain (Gle1^CTD, residues 382–698) (domain or fragment, human, UniProt Q53GS7 382-698, looked up)
chain: B3 chain 1
notes: human Gle1 (splice variant Gle1B), C-terminal domain, residues 382-698; also called hsGle1^CTD; source: E. coli BL21-CodonPlus(DE3)-RIL, co-expressed with His6-hsNup42^GBM, purified (Ni-NTA, heparin, Superdex 75)
B5: SUMO-Gle1^N (SUMO fusion of human Gle1 residues 2–33) (domain or fragment, UniProt Q53GS7 2-33, looked up)
chain: PSEGRCWETLKALRSSDKGRLCYYRDWLLRRE
notes: human Gle1 (splice variant Gle1B), N-terminal residues 2-33; No cleavage of the His6-SUMO tag is described for this construct; also called His6-SUMO-hsGle1^N; source: E. coli BL21-CodonPlus(DE3)-RIL, purified (Ni-NTA, HiTrap Q, Superdex 200); not shown: SUMO, N-terminal, kept

Experiments:
[1] = molecular target: T1, S. cerevisiae Gle1^CTD•Nup42^GBM•Dbp5; experiment: size exclusion chromatography, complex formation; format: binding; settings: 0.5 mM IP6, 20 mM Tris pH 8.0, 100 mM NaCl, 5 mM DTT; IP6 bridges Gle1 and Dbp5
[2] = molecular target: T9, C. thermophilum Gle1^CTD•Nup42^GBM (Thermochaetoides thermophila, UniProt G0S7F3); experiment: X-ray crystal structure ([…] Å); format: binding; settings: pH 6.3 MES, zinc sulfate; pocket on Gle1
T9 construct: E. coli; tags cleaved; with Nucleoporin NUP42
T9 sequence (G0S381 441-557): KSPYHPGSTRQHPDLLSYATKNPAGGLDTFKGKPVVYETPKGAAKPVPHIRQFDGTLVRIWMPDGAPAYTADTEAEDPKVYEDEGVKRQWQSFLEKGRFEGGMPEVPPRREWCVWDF
T9 sequence (G0S7F3 216-529): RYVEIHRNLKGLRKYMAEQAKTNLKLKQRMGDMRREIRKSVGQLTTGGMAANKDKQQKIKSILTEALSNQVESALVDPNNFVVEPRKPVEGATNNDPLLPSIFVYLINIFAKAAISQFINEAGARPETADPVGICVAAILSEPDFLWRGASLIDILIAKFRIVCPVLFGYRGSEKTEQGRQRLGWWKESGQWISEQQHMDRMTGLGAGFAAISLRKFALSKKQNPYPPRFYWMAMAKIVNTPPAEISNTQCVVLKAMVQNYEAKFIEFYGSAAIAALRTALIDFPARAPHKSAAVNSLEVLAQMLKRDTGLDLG

S. cerevisiae Gle1^CTD = molecular target: T2, S. cerevisiae Gle1^CTD; experiment: differential scanning fluorimetry; format: binding; settings: Tm without to with IP6 (25 µM); no Nup42; 20 mM Tris pH 8.0, 100 mM NaCl, 5 mM DTT
[3] = molecular target: T3, S. cerevisiae Gle1^CTD•Nup42^GBM; experiment: isothermal titration calorimetry; format: binding
DDX19 (wild type) = molecular target: T4, DDX19 (wild type); experiment: EMSA; + 1 uM Gle1CTD(382-698)•Nup42GBM(379-423): binding enhanced; 1 mM AMP-PNP, 2 mM MgCl2; 20 mM TRIS pH 8.0, 100 mM NaCl, 2 mM MgCl2, 1 mM DTT, 10% glycerol, 1 mM AMP-PNP; 25 ng RNA in 10 ul; 20 min on ice; 1.4% native agarose gel, 0.25x TBE, room temperature; settings: protein: recombinant; tags: His6 removed by PreScission protease; label: none (SYBR gold stain); single strand
[4] = molecular target: T5, Nup155 C-terminal domain (Nup155^CTD, …); experiment: SEC; Superdex 200 10/300 GL; 20 mM TRIS (pH 8.0), 100 mM NaCl, 5 mM DTT; proteins mixed and incubated 30 min on ice, twofold molar excess of the smaller component; fractions on Coomassie-stained SDS-PAGE; settings: both partners purified
GST-Nup155^CTD = molecular target: T6, GST-Nup155^CTD; experiment: pull-down; GST-Nup155^CTD (20 μM) preincubated with a twofold molar ratio of Nup98^ΔFG or SUMO-Gle1^N, then with 0-8-fold molar ratios of the other protein; Glutathione Sepharose beads; 20 mM TRIS (pH 8.0), 100 mM NaCl, 5 mM DTT; settings: both partners purified
H. sapiens DDX19 = molecular target: T7, H. sapiens DDX19; experiment: SEC; human DDX19 with Gle1^CTD•Nup42^GBM, without and with 0.5 mM IP6 (IP6 partially reduced complex formation); 20 mM TRIS (pH 8.0), 100 mM NaCl, 5 mM DTT; settings: both partners purified
[5] = molecular target: T8, H. sapiens DDX19^∆N53 (residues 54–479); experiment: crystal structure; H. sapiens Gle1^CTD•Nup42^GBM•DDX19^∆N53, reconstituted from equimolar purified Gle1^CTD•Nup42^GBM and DDX19^∆N53; with ADP 3.6 Å or AMP-PNP•Mg^2+ 3.4 Å; settings: both partners purified

Row | Molecule | binding result [4] | binding result (GST-Nup155^CTD) | binding result (H. sapiens DDX19) | binding result [5] | also measured
1 | O=P(O)(O)O[C@H]1[C@H](OP(=O)(O)O)[C@@H](OP(=O)(O)O)[C@H](OP(=O)(O)O)[C@@H](OP(=O)(O)O)[C@H]1OP(=O)(O)O [IP6] | – | – | – | – | size exclusion chromatography, complex formation [1]: Dbp5 and Gle1^CTD•Nup42^GBM only formed a complex in the presence of IP6; X-ray crystal structure (2.17 Å) [2]: IP6 binds to C. thermophilum Gle1^CTD and to S. cerevisiae Gle1^CTD in a similar orientation; Tm (S. cerevisiae Gle1^CTD): 22 to 37 °C; Kd [3]: ~3 nM
2 | B1 | – | – | – | – | binding result (DDX19 (wild type)): binds
3 | B2 | binds | binds | – | – | –
4 | B3 | – | – | binds | binds | –
5 | B4 | – | – | binds | binds | –
6 | B5 | binds | binds | – | – | –
